22 sequences from a protein production outcome set (Wang et al. 2014) can be followed below.
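Also: failed if final PepcDB status was selected cloned or expressed and not failed if soluble or beyond.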

A short description of the series: label from the status in PepcDB records.
In the case of “MTYFLYGNNFSSSILDTISYIIDWIIINMEPITLTLCLLVFAIVMFVWEKVPLAVTSMIVCVALVITGVLNIKQAFAGFIDTNVILFVAMFIVGGALFETGMANKVGGVITRFAKTEKQLIFTIMVVVGLMSGVLSNTGTAAVLIPVVIGVAAKSGFSRSRLLMPLVFAAALGGNLSLIGAPGNLIAQSALQNIGGGFGFFEYAKIGLPMLICGILYFLTIGYRFLPNNATGGEVGSVGEQRDYSHVPQWKQRLSLVVLIATILGMIFEKKIGVSLAVTGCIGALVLVVSGVLTEKQAYKAIDSQTIFIFGGTLALAKALEMTGAGKLVADYVIGMLGQNSSPFMLLIAVFALSVVMTNFMSNTATTALLVPVSLSIAAGMGADPRAVLMATVIGGSCAYATPIGMPANMMVLSAGGYKFVDYAKAGIPLIIVSTIVSLILLPILFPFHP”, the protein production result is on record as “failed”.

Regarding “MHMQLKGKTALVTGSTAGIGKAIATSLVAEGANVLINGRREENVNETIKEIRAQYPDAILQPVVADLGTEQGCQDVIEKYPKVDILINNLGIFEPVEYFDIPDEDWFKLFEVNIMSGVRLTRSYLKKMIERKEGRVIFIASEAAIMPSQEMAHYSATKTMQLSLSRSLAELTTGTNVTVNTIMPGSTLTEGVETMLNSLYPNEQLTIEEAEKRFMKENRPTSIIQRLIRPEEIAHLVTFLSSPLSSAINGSALRIDGGLVRSVF”, the protein production result was “not failed”. The value for “MLYHLVMLEPEGEGAMDRIMEAMAILDGLAPELPGLTEFRHGPNRDFEQKSERYPYGFLCTFTDKAALDAYAVHPTHQRAGGMLVASCRNGADGILVVDLEV” was “not failed”; that for “MSLRARIHSPEEHGSRGEDGHLVASYRAKLLEEIDLAEMSALATAERRARLERVLGHIISREGPVLSTVERSQLIRRVVDEALGLGILEPLLEDASITEIMVNGPDAIFVERAGRVEQLPLRFASHDQLMQTIERIVSTVNRRVDESNPMVDARLPSGERVNVIIPPLSLTGATLTIRRFPRSFTLQELIGLGSLDENMLYLLAGLVQARFNIIVSGATGTGKTTLLNALSGLIPESDRIITIEDSAELQLQQAHVIRLESRPPNVEGQGRITIRDLVRNSLRMRPDRIVVGEVRGGESLDMLQAMSTGHDGSLATVHANSAEDALMRLQTLASMSDVEIPFVALHDQINSSVDVLIQLTRFADGARRITEIALLASHGGEPYRLATVARFNARPMSADGRVVGAYEYHPLPHRTAERLYMAGQPIPQAFGVAHTPDQLTTREAR” was “failed”; that for “MINKTLLQKRFNGAAVSYDRYANVQKKMAHSLLSILKERYSETASIRILELGCGTGYVTEQLSKLFPKSHITAVDFAESMIAIAQTRQNVKNVTFHCEDIERLRLEESYDVIISNATFQWLNNLQQVLRNLFQHLSIDGILLFSTFGHETFQELHASFQRAKEERNIKNETSIGQRFYSKDQLLHICKIETGDVHVSETCYIESFTEVKEFLHSIRKVGATNSNEGSYCQSPSLFRAMLRIYERDFTGNEGIMATYHALFIHITKEGKR” was “failed”. The value for “MIESMIIAGGMLVALLYMTACSDKLDVQQMYEFDLATLPVQTTIVKGEEAEIRCQLVRSGEYQDTKYFIRYFQPTGKGELRMENGTVLLPNDLYLLPEETFRLYYRSFGTDQQKIDIYILDSFGQVVQKSFAFNNLEHHHHHH” was “failed”; that for “MSEVLTRGFRFRPADEEVTDYLMRKTQSPEFSCFIKTIDLYDKDPWVLGHVRDPCYNHYEWYYFVKKNPLGNEYLDKPRLNGFEHPRLKWDVLKQIHDALSSGQNVPPSVFTYGFRFHPTDQELLSLYLTPKAHSPDFSCFIRERESYMPWSHGFLNMLDLLFTRTVNGTTL” was “failed”. With “MKVTDVRLRKIQTDGRMKALVSITLDEAFVIHDLRVIEGNSGLFVAMPSKRTPDGEFRDIAHPINSDMRQEIQDAVMKVYDETDEVVPDKNATSEDSEEA”, the protein production result was “not failed”. In the case of “MAIIPGVEQKPMSSNLESRIDQGTGREPADMVLKGGRFFDLVTGELVASDIAICGDTVVGTCGDYKGRHEIDISGKIVVPGFIDTHLHIESSLVTPHEFDRCVLPYGVTTAICDPHEIANVLGAEGLQFFLDSAMETIMDIRVQLSSCVPATHLETSGADLPIEKLLPFRNHPKVIGLAEFMNFPGVIHKDPVCMAKLEAFQGQHIDGHAPLLSGAALNGYLAAGIRTEHECTSAAEALEKIRKGMHILVREGSVSKDLHALMPIITERLSPYLALCTDDRNPLDIAEQGHLDYMIRTAIASGVEPLAIYRAASISAAKAFGLRDRGLVAPGWRADLVVIDTLQNCKASMVLSGGRLVDDALFATRKPVAPVGLDSVKARPVLASHFGVPVTEGETPVMGVLPGKIITEHRRYKLPTDGNQTTVDLENDIIKVAVIERHGKNGNHANGFVQGFGLKKGAIASTVGHDSHNICVVGVSEDDMALAANRLGDIKGGFVVVEDGRVTGEIALPVAGLMSLEPYETVRDTLHTLRKAAYALGTTLEEPFLQVAFLPLPVIPHLKISDMGMVDVDRFALI” it was “failed”; in that of “MEILYIKGDATAPIGSGVKVITHICNDIGGWGKGFVLALSKKWKMPEEAYRQWYKSQEEFTLGAVQFVNVENKLYVANMIGQHGIYKDSKGLPPIRYDAVRQCLKEVALFTIAHKASVHMPRIGCGLAGGKWELMEQIIKEELITKEIAVTVYDL”, “not failed”. The value for “MIDCAIIGGGPAGLSAGLYATRGGVKNAVLFEKGMPGGQITGSSEIENYPGVKEVVSGLDFMQPWQEQCFRFGLKHEMTAVQRVSKKDSHFVILAEDGKTFEAKSVIIATGGSPKRTGIKGESEYWGKGVSTCATCDGFFYKNKEVAVLGGGDTAVEEAIYLANICKKVYLIHRRDGFRCAPITLEHAKNNDKIEFLTPYVVEEIKGDASGVSSLSIKNTATNEKRELVVPGFFIFVGYDVNNAVLKQEDNSMLCKCDEYGSIVVDFSMKTNVQGLFAAGDIRIFAPKQVVCAASDGATAALSVISYLEHH” was “failed”; that for “NAMVLREDIDKLKLLAQQFEQELQAYNTRIGNLETRIAYLEDRQFSVTTKLTGDSIWVLSGVGGSEQADGPPDQPVQNGEVTVNFRQRINFNTSFSGEDNLLIRLQSANFFLARGGSNLTDFNFAATEEQGNVNINKMQYSFPVGDRARIWLAGNRITMDDIMDPLAPYTNSFTDGAVSFFGAIAPIYLPNDNSGPGAGFSYNFTDDLSLGGFYSAGKGFSPNQSEGLFNGQFGVGAQLNYVPAANTGVAFSYLHNYIPQGQYDSFSALGYTGLANTDNPFDDAASSTNHYAVIWTWQLADWFSLEGWGMYSDATAKSGDRQGDTADIWNWKVSLAFPDLGKEGNVGVVSVGQPPYASFISNNNNVPDITPATTDAPWFVETFYLYQFNDNISLTPAFWIGINPANGRDPLWVAALRTSFKF” was “failed”. In the case of “MRNHKQSDRVLNLPAGYFGIVLGTIGMGFAWRYASQIWGISHWPGDIMVILAMIIWALLTLAFLSRLVRFPHSVMAEVRHPVMSSFVSLFPATTMLVAIGFVPWYRPLAVALFSVGVVIQLAYAAWQTAGLWRGAHPEEATTPGLYLPTVANNFISAMACGALGYNDAGLVFLGAGVFSWLSLEPVILQRLRSCGELPAVLRTSLGIQLAPALVACSAWLSVNGGEGDTLAKMLFGYGLLQLLFMLRLMPWYLSQPFNASFWSFSFGVSALATTGLHLGHGSESGLFHILAVPLFIFTNAIIALLLVRTFLLLVQGTLLIRTERAALLKTEEKNDRS” it was “failed”. In the case of “NILKIRCAPVTWPIGMGKNFKGVYHILNDEIYLFEAGGERLPHEFDIIKGIDNPELEQRFPLEIQQLRDEIELVQAASNEFNLDEFLAGELTPVFFGSAINNFGIQEILNSLIDWAPAPKPRDATVRMVEPDEPKFSGFIFKIQANMDPKHRDRIAFLRVCSGKFERGMKMKHLRINREIAASSVVTFMSHDRELVEEAYAGDIIGIPNHGNIQIGDSFSEGEQLAFTGIPFFAPELFRSVRIKNPLKIKQLQKGLQQLGEEGAVQVFKPMSGADLILGAVGVLQFEVVTSRLANEYGVEAVFDSASIWSARWVSCDDKKKLAEFEKANAGNLAIDAGGNLAYLAPNRVNLGLTQERWPDIVFHETREHSVKL”, the protein production result is reported as “failed”.

With “MGSDVHVWKTWFITSSDRGFTWSTPAPLVNDDILPRGPVKNKLLLASNGAWIAPGSIESPERWRAFVDRSSDEGKHWSISFVPLEPDNAISGTNVALWDGIKKGRLWECCLENLLRWDGVIQPTLWESSPGHIHMLLRSTRGAIFRSDSIDYGATWSVARATSLPNNNSGIDLVSMQDGTLILALNPVNGNWGKRYPLSLIASQDNGESWLPLLDLESDHGEYSYPAIISEGGIVHITYTWNRKLEHHHHHH”, the protein production entry is listed as “not failed”. In the case of “MKPKLILMSHGRMAEETLASTQMIVGELADAAIVSMTAEDGLSGTQAKLAAILKEAGNVPTLVLADLKGGTPCNVAMMAMGTYPQLRVVAGLNLAMAIEAAVSPVENVDELAAYLTQIGQSAVTTIDLPELTDEEEFEE” it was “not failed”. In the case of “MKVPEAAISRLITYLRILEELEAQGVHRTSSEQLGELAQVTAFQVRKDLSYFGSYGTRGVGYTVPVLKRELRHILGLNRKWGLCIVGMGRLGSALADYPGFGESFELRGFFDVDPEKVGRPVRGGVIEHVDLLPQRVPGRIEIALLTVPREAAQKAADLLVAAGIKGILNFAPVVLEVPKEVAVENVDFLAGLTRLSFAILNPKWREEMMG” it was “not failed”; in that of “MLIRKITRKNPSPDVLEEAISVMEGGGIVIYPTDTIYGLGVNALDEDAVRRLFRVKGRSPHKPVSICVSCVDEIPRFSRPSGDAMELMERILPGPYTVVLERNELIPDVITGGSSRVGIRVPDDEICRRIAARFPVTATSANISGKPPSPRLEEIVRDLDAVDLVLDAGDCLDMEPSTVIDLTVNPPRVLRRGKGPLDPVLLRGAGDV”, “not failed”. In the case of “MGCYHPLSGTDGTLMRHTLPIAPQFYVTAPQPCPYLAGRMERKLFTALQGEGAERLNNALSQQGFRRSQNVLYRPSCADCAACLSARIDVSAFRASRSQKRAMRRNAHLTRRATSPWATDEQYELFRRYLDSRHADGGMADMDVFEFAAMIEETPIRSRVIEYAHRDTRALIGVSLTDVLDDGLSMVYSFYDPDLHRDSLGTHMILDHIAIAREAGLPYVYLGYWVPGSPKMGYKSRFSGLEIYLGGRWQAMTDPEAHDAIRHPLSTDPIAEQVANIQLPDRWPTGDLEHHHHHH” it was “failed”.

Regarding “MTANAYVRARIDQTLKDDATAVLDRLGLTVSDVMRMMLTRIAREKALPIELTQPNAETLAAIEEARAIAAAGRNRFGTSEALFEALDAGKRLEHHHHHH”, the protein production result is reported as “not failed”. Regarding “MKKLLTVTFFTGMLTFFKMISGFIISKIVAIYTGPSGIVLFGQIQSIVSALNGVINSPVGPGIVRFTAENHRKGLEHCYKWWIAGLSWVCIISAIIIPLSITLSSHIAFWTLGSEKYSWVIILTACLLPLTAIGTFISSVINGFQNYKVYVLLGIISAFLSLIIMIALIVFGKINGALLAISVQNALIGGVMIIYASSQPWFNLRWLYGRVHKTYYKDIQRYIVMAITSAIVVPGSLIIVRNIIIHYVGWTEAGYWQAVWKISETYLAIITIALSTYYLPRLSSLSQKDDIIKEISSSLKIIIPLVMFFSMGIYLSRDFIISLLFTKEFLGARMLFQVQLIGDILKIASWLYAYVMISKGMTQLFVISEVLFSLLFISFSLVFIRCYGLIGVTYAYCLNYFIYLVFSVVVVKRAKYD”, the protein production entry is recorded as “failed”. For the sequence “MIIPMNNKHPLPTPLVSIIIPVYNVEKYLYRCVKSILSQDYYDYEIILVDDGSTDGSGMICDELTEQHGHISVIHKPNGGQGSARNAGLNHAKGKYIWFIDSDDYISPHSLSVIMSQITQGDFDALFFPYIKSNGNILIGEAVGKYHAGVYRGQQLLLEGLVNMSMCTIVSLRSRWIDNRIFFREDIHFEDFEINPRVLKFLERAIFLDSNIIPYIYYTRLGSTMNQLDPQKRMRQTEDFLRIEKSWKEWFNLDSPEPNSYDMLMLRTGTNMLHRNLLNFVRNSNFSISTKLKLYAQYRKKGVFSWFYNGYRRDPYVGCTSVRVFWNTIGRSYILFSLFSIVEEIWKKIRK”, the protein production result is “failed”.
